This is an account of results in PMC2190859.

Bounds are passed on as bounds.

The target of this assay is collagen. As to the kind of experiment: cell adhesion assay.

Turning to “very late antigen 4 (VLA-4, alpha4 beta1 integrin) (from UniProt P13612;P05556) (receptor)”, the percent of cells binding was < 5%.
